In the Immune Epitope Database (IEDB):

Legend:
HLA-B*48:01 = assay: IEDB peptide-MHC binding, purified MHC/direct/fluorescence; filed as Kd, often an IC50 or EC50 that approximates it; ≥ and ≤ were set here for values at or beyond the usual limits of such assays; settings: source organism: Influenza A virus (A/Wisconsin/4755/1994(H1N1))
HLA-A*68:02 = assay: as above; settings: source organism: Influenza A virus (A/Wisconsin/4755/1994(H1N1))
HLA-A*31:01 = assay: as above; settings: source organism: Influenza A virus (A/Wisconsin/4755/1994(H1N1))
HLA-B*15:17 [1] = assay: as above; settings: source organism: Influenza A virus (A/Wisconsin/4755/1994(H1N1))
HLA-A*26:01 = assay: as above; settings: source organism: Influenza A virus H3N2
HLA-B*08:01 = assay: as above; settings: source organism: Influenza A virus (A/seal/Mass/1/1980(H7N7))
HLA-B*18:01 [2] = assay: as above; settings: source organism: Influenza A virus (A/Wisconsin/4755/1994(H1N1))
HLA-A*03:01 = assay: as above; settings: source organism: Influenza A virus (A/Wisconsin/4755/1994(H1N1))
HLA-B*07:02 = assay: as above; settings: source organism: Influenza A virus (A/seal/Mass/1/1980(H7N7))
HLA-B*15:01 [3] = assay: as above; settings: source organism: Influenza A virus (A/Wisconsin/4755/1994(H1N1))
HLA-A*01:01 [4] = assay: as above; settings: source organism: Influenza A virus (A/Wisconsin/4755/1994(H1N1))
HLA-B*27:05 = assay: as above; settings: source organism: Influenza A virus (A/Wisconsin/4755/1994(H1N1))
HLA-A*02:01 = assay: as above; settings: source organism: Influenza A virus (A/Wisconsin/4755/1994(H1N1))
HLA-B*58:01 = assay: as above; settings: source organism: Influenza A virus (A/Wisconsin/4755/1994(H1N1))
HLA-A*26:02 [5] = assay: as above
HLA-A*11:01 [6] = assay: as above; settings: source organism: Influenza A virus (A/Wisconsin/4755/1994(H1N1))
HLA-B*40:01 = assay: as above; settings: source organism: Influenza A virus (A/Wisconsin/4755/1994(H1N1))
HLA-B*46:01 = assay: as above; settings: source organism: Influenza A virus (A/Wisconsin/4755/1994(H1N1))
HLA-B*57:01 [7] = assay: as above; settings: source organism: Influenza A virus (A/Wisconsin/4755/1994(H1N1))
HLA-A*69:01 = assay: as above; settings: source organism: Influenza A virus (A/Wisconsin/4755/1994(H1N1))
HLA-B*15:17 [8] = assay: IEDB peptide-MHC binding, purified MHC/competitive/fluorescence; filed as Kd, often an IC50 or EC50 that approximates it; ≥ and ≤ were set here for values at or beyond the usual limits of such assays; settings: source organism: Human immunodeficiency virus 1
HLA-B*18:01 [9] = assay: as above; settings: source organism: Human immunodeficiency virus 1
HLA-B*15:01 [10] = assay: as above; settings: source organism: Human immunodeficiency virus 1
HLA-A*01:01 [11] = assay: as above; settings: source organism: Human immunodeficiency virus 1
HLA-A*26:02 [12] = assay: as above; settings: source organism: Human immunodeficiency virus 1
HLA-A*02:06 = assay: as above; settings: source organism: Human immunodeficiency virus 1
HLA-A*11:01 [13] = assay: as above; settings: source organism: Human immunodeficiency virus 1
HLA-A*30:01 = assay: as above; settings: source organism: Human immunodeficiency virus 1
HLA-A*02:03 = assay: as above; settings: source organism: Human immunodeficiency virus 1
HLA-B*57:01 [14] = assay: as above; settings: source organism: Human immunodeficiency virus 1

## DPKKTGGPI
HLA-B*48:01
  Kd: ≥ 20 µM
HLA-A*68:02
  Kd: ≥ 20 µM
HLA-A*31:01
  Kd: ≥ 20 µM
HLA-B*15:17 [1]
  Kd: ≥ 20 µM
HLA-A*26:01
  Kd: ≥ 20 µM
HLA-B*08:01
  Kd: ≥ 20 µM
HLA-B*18:01 [2]
  Kd: ≥ 20 µM
HLA-A*03:01
  Kd: ≥ 20 µM
HLA-B*07:02
  Kd: 84.9 nM
HLA-B*15:01 [3]
  Kd: ≥ 20 µM
HLA-A*01:01 [4]
  Kd: ≥ 20 µM
HLA-B*27:05
  Kd: ≥ 20 µM
HLA-A*02:01
  Kd: ≥ 20 µM
HLA-B*58:01
  Kd: ≥ 20 µM
HLA-A*26:02 [5]; source organism: Influenza A virus H3N2
  Kd: ≥ 20000 nM
HLA-A*11:01 [6]
  Kd: ≥ 20 µM
HLA-B*40:01
  Kd: ≥ 20 µM
HLA-B*46:01
  Kd: ≥ 20 µM
HLA-B*57:01 [7]
  Kd: ≥ 20 µM
HLA-A*69:01
  Kd: ≥ 20 µM

## EYTDYMPSM
HLA-A*26:02 [5]; source organism: Dengue virus 2 Thailand/16681/84
  Kd: 26 nM

## KSLYNTIATLY
HLA-B*15:17 [8]
  Kd: 12.6 nM
HLA-B*18:01 [9]
  Kd: 346 nM
HLA-B*15:01 [10]
  Kd: ≥ 20 µM
HLA-A*01:01 [11]
  Kd: 2910 nM
HLA-A*26:02 [12]
  Kd: 1060 nM
HLA-A*02:06
  Kd: 2020 nM
HLA-A*11:01 [13]
  Kd: 697 nM
HLA-A*30:01
  Kd: ≥ 20 µM
HLA-A*02:03
  Kd: ≥ 20 µM
HLA-B*57:01 [14]
  Kd: 652 nM
